According to patent publication US6835382B2, “Ii peptide therapeutics to enhance antigen presentation” (University of Massachusetts, priority 1996, dated 2004):
Non-standard residues stand in square brackets, D forms with d. Cit = NC(=O)NCCC[C@H](N)C(=O)O; Orn = NCCC[C@H](N)C(=O)O

Molecular target: T1, murine E^d MHC class II allele (Mus musculus, UniProt P01904+P01915)
T1 sequence (P01904 26-255): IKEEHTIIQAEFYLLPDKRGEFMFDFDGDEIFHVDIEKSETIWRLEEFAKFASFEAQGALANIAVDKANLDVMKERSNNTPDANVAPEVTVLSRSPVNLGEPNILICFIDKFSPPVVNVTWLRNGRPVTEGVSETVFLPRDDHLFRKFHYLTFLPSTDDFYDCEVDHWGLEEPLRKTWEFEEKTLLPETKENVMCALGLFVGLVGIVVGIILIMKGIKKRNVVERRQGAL
T1 sequence (P01915 27-264 limits assumed): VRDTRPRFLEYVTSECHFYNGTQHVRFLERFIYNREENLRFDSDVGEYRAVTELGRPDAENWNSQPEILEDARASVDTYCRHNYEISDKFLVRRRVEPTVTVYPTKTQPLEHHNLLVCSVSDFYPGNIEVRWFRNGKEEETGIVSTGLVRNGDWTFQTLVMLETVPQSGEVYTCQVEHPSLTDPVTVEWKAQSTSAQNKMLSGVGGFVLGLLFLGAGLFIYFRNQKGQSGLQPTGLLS
Test: processed antigen assay, E^d allele (APC pulsed with native HEL)
Type: cell-based
Set-up: The A20 and CH27 B cell lymphoma lines express H-2^d and H-2^k alleles, respectively; endogenous in cells; host or cells: A20 B cell lymphoma (mitomycin C-treated or paraformaldehyde-fixed)
Details: AE peptide 64 μM; for T cell response relative to baseline (None = 1.0), 5 μM HEL E^d, first value / T cell response relative to baseline (None = 1.0), 5 μM HEL E^d, second value / T cell response relative to baseline (None = 1.0), 10 μM HEL E^d, first value / T cell response relative to baseline (None = 1.0), 10 μM HEL E^d, second value / T cell response relative to baseline (None = 1.0), 20 μM HEL E^d, first value / T cell response relative to baseline (None = 1.0), 20 μM HEL E^d, second value: Table 29; for T cell response relative to baseline (None = 1.0), 5 μM HEL E^d, first value / T cell response relative to baseline (None = 1.0), 5 μM HEL E^d, second value: native HEL prepulse 5 μM; for T cell response relative to baseline (None = 1.0), 5 μM HEL E^d, first value / T cell response relative to baseline (None = 1.0), 10 μM HEL E^d, first value / T cell response relative to baseline (None = 1.0), 20 μM HEL E^d, first value: supernatant dilution 1:4 (first value); for T cell response relative to baseline (None = 1.0), 5 μM HEL E^d, second value / T cell response relative to baseline (None = 1.0), 10 μM HEL E^d, second value / T cell response relative to baseline (None = 1.0), 20 μM HEL E^d, second value: supernatant dilution 1:8 (second value); for T cell response relative to baseline (None = 1.00), E^d: Table 31; for Activity in processed antigen assay, E^d (baseline = 1.0): Table 34, native HEL 10 μM prepulse, supernatant 1:8
Method: In a third type of assay, the “processed antigen assay”, certain of the AE101 series of peptides inhibit stimulation of specific T cell hybridomas by antigenic peptides which are derived from the endogenous processing of a native protein antigen. This assay, which is related to the peptide prepulse assay, is performed by incubating APC with native protein antigen for 8 h, after which the pulsed APC are washed and treated with mitomycin C. Those pulsed APC are then combined with AE101 series peptides and T cell hybridomas and are incubated for 24 h. After that incubation, an aliquot of the culture supernatant is transferred to a second culture to measure T cell stimulation, as reflected in the effect of released interleukins on the growth of an interleukin-dependent, indicator cell line. During the 8 h incubation with native protein antigen, the protein antigen is taken into the APC. The native protein enters the processing pathway within the APC, where it is enzymatically cleaved to peptide fragments. Those peptide fragments with high affinity for the particular MHC class II molecules produced by the APC form antigenic peptide/MHC class II complexes which are transported to the cell surface. At the cell surface, the MHC class II molecules are contacted by the AE101 peptides, which cause the release of the antigenic peptide by the same mechanism proposed for the “peptide prepulse” assay above.
The “processed antigen assay” was carried out under essentially the same conditions as the “peptide prepulse assay”, with the following modifications. Untreated APC were incubated at 1×10^6/mL in 24-well plates (1 mL/well) with native protein antigen for 8 h. Following that incubation, the pulsed APC were washed, treated with mitomycin C, and washed again. AE101 series peptide was added at 64 μM, 16 μM, 4 μM, and 1 μM concentrations for 24 h in the presence of the T cell hybridoma specific for the antigenic peptide. Interleukin release from these cultures was measured by proliferation of HT-2 cells to interleukins in supernatants transferred from the primary culture. The baseline T cell response was measured by culturing T hybridoma cells with the native antigen-prepulsed APC in the absence of AE101 series peptides.
The “processed antigen assay” was carried out under essentially the same conditions as the “peptide prepulse” assay, with the following modifications. Untreated APC were incubated at 1×10^6/mL in 24-well plates (1 mL/well) with native protein antigen for 8 h. Following incubation, the pulsed APC were washed, treated with mitomycin C, and were washed again. The assay conditions were then as described for “peptide prepulse” above. The baseline T cell response was measured by culturing T hybridoma cells with the native antigen-prepulsed APC in the absence of AE101 peptides.
Table 2.9: Activities of substitution series at Leucine^80 in AE114 in a processed antigen assay. […] The results in this assay constitute, relatively, a mirror image of the result in the simultaneous assay (Example 1, Table 7) and parallel those of the antigenic peptide prepulse assay (Example 5, Table 24). Untreated APC were incubated with native HEL, instead of antigenic peptide, for 8 h. After incubation, the pulsed cells were washed and mitomycin C treated before being cocultured with AE-peptides and T cell hybridomas. Wells containing only T cells and native HEL-prepulsed APC were used to determine the Baseline response, or 1, in the absence of AE peptides. The concentration of AE peptide used was 64 μM for these assays. The supernatant dilutions used in the HT-2 cell assay were 1:4 (first value) and 1:8 (second value).

[1] = native HEL prepulse 10 μM, supernatant dilution 1:4
[2] = Table 32, native HEL prepulse 20 μM, supernatant dilution 1:4
[3] = Table 30, native HEL prepulse 10 μM, supernatant dilution 1:8
[4] = Table 33, native HEL prepulse 10 μM, supernatant dilution 1:8

| Substance | T cell response relative to baseline (None = 1.0), 5 μM HEL E^d, first value | T cell response relative to baseline (None = 1.0), 5 μM HEL E^d, second value | T cell response relative to baseline (None = 1.0), 10 μM HEL E^d, first value (native HEL prepulse 10 μM) | T cell response relative to baseline (None = 1.0), 10 μM HEL E^d, second value (native HEL prepulse 10 μM) | T cell response relative to baseline (None = 1.0), 20 μM HEL E^d, first value (native HEL prepulse 20 μM) | T cell response relative to baseline (None = 1.0), 20 μM HEL E^d, second value (native HEL prepulse 20 μM) | T cell response relative to baseline (None = 1.00), E^d [1] | T cell response relative to baseline (None = 1.0), E^d [3] | other results |
| --- | --- | --- | --- | --- | --- | --- | --- | --- | --- |
| Ac-LRMK D PK-NH2 (Ac-LRMKDPK-NH2) [AE230] | 0.81, | 0.62 | 0.93, | 0.77 | 1.1, | 0.98 |  |  |  |
| Ac-LRMK N PK-NH2 (Ac-LRMKNPK-NH2) [AE232] | 0.50, | 0.50 | 0.68, | 0.61 | 0.97, | 0.83 | 0.46 |  |  |
| Ac-LRMK[Orn]PK-NH2 [AE225] | 0.26, | 0.38 | 0.32, | 0.30 | 0.59, | 0.48 |  |  |  |
| Ac-Y K MKLPKSAK-NH2 [AE134] |  |  |  |  |  |  |  |  | T cell response relative to baseline (None = 1.0), E^d [2]: 0.50 |
| Ac-LRMKLPK-NH2 [AE114] | 0.23, | 0.37 | 0.29, | 0.28 | 0.53, | 0.44 | 0.49 | 0.22 | T cell response relative to baseline (None = 1.0), E^d [2]: 0.40; T cell response relative to baseline (None = 1.0), E^d [4]: 0.37; Activity in processed antigen assay, E^d (baseline = 1.0): 0.22 |
| Ac-LRMK l PK-NH2 [AE164] |  |  |  |  |  |  |  | 0.64 |  |
| Ac-LR (mL) KLPK-NH2 [AE302] |  |  |  |  |  |  |  | 0.51 |  |
| Ac-LRMK F PK-NH2 (Ac-LRMKFPK-NH2) [AE234] | 0.51, | 0.62 | 0.65, | 0.60 | 0.98, | 0.88 |  |  |  |
| Ac-LRMK Cit PK-NH2 (Ac-LRMK[Cit]PK-NH2; SMILES CSCC[C@H](NC(=O)[C@H](CCCNC(=N)N)NC(=O)[C@H](CC(C)C)NC(C)=O)C(=O)N[C@@H](CCCCN)C(=O)N[C@@H](CCCNC(N)=O)C(=O)N1CCC[C@H]1C(=O)N[C@@H](CCCCN)C(N)=O) [AE226] | 0.60, | 0.34 | 0.68, | 0.58 | 0.95, | 0.87 |  |  |  |
| Ac-LRMK E PK-NH2 (Ac-LRMKEPK-NH2) [AE231] | 0.96, | 0.85 | 0.94, | 0.83 | 1.0 | 1.1 |  |  |  |
| Ac-LR (mL) KyPk-NH2 [AE306] |  |  |  |  |  |  |  | 0.68 |  |
| Ac-LRMK (mL) PK-NH2 [AE175] |  |  |  |  |  |  |  | 0.70 |  |
| Ac-LRMK Y PK-NH2 (Ac-LRMKYPK-NH2; not fully specified; printed as Ac-LRMK Y PK-NH2) [AE235] | 0.33, | 0.38 | 0.42, | 0.39 | 0.71, | 0.56 | 0.53 | 0.19 | T cell response relative to baseline (None = 1.0), E^d [2]: 0.46; T cell response relative to baseline (None = 1.0), E^d [4]: 0.45; Activity in processed antigen assay, E^d (baseline = 1.0): 0.19 |
| Ac-L[Cit]NKLPK-NH2 [AE343] |  |  |  |  |  |  | 0.69 |  |  |
| Ac-LRMK K PK-NH2 (Ac-LRMKKPK-NH2) [AE229] | 0.38, | 0.58 | 0.55, | 0.49 | 0.71, | 0.62 |  |  |  |
| Ac-LRM M LPK-NH2 (Ac-LRMMLPK-NH2) [AE220] |  |  |  |  |  |  |  |  | T cell response relative to baseline (None = 1.0), E^d [2]: 0.63 |
| Ac-LRMKLP k-NH2 [AE166] |  |  |  |  |  |  |  | 0.36 |  |
| Ac-LR HArg KLPK-NH2 [AE197] |  |  |  |  |  |  |  |  | T cell response relative to baseline (None = 1.0), E^d [2]: 0.45 |
| Ac-ARNKLPK-NH2 [AE344] |  |  |  |  |  |  | 0.76 |  |  |
| Ac-LRLK HArg PK-NH2 [AE341] |  |  |  |  |  |  | 0.12 |  |  |
| Ac-LRNKNPF-NH2 [AE348] |  |  |  |  |  |  | 0.81 |  |  |
| Ac-LRMK M PK-NH2 (Ac-LRMKMPK-NH2) [AE236] | 0.41, | 0.58 | 0.56, | 0.53 | 0.76, | 0.72 |  |  |  |
| Ac-LRLKWPK-NH2 [AE309] |  |  |  |  |  |  | 0.44 | 0.29 | T cell response relative to baseline (None = 1.0), E^d [2]: 0.55 |
| Ac-LRLKyPK-NH2 [AE308] |  |  |  |  |  |  |  | 0.60 |  |
| Ac-LR (mL) KYPk-NH2 [AE305] |  |  |  |  |  |  |  | 0.70 |  |
| Ac-ARMKNPK-NH2 [AE345] |  |  |  |  |  |  | 0.81 |  |  |
